The values that follow come from patent US12410262B2, “Peptide conjugates of cytotoxins as therapeutics” (Cybrexa 2, Inc., priority 2019, dated 2025).

In series [1] the test system is HCT116. Put plainly: cells. Type of series: cell-based, human. As for the experimental part:
Cells were plated in 96 well black walled-clear bottom plates (Griener), DLD-1 WT cells at 2500 cells per well, FaDu, and HeLa cells at 5000 cells per well, and HCT116 at 3000 cells per well, in growth media containing 10% FBS. Cells were allowed to adhere at room temperature for 60 minutes before returning to a 37 C, 5% CO2 incubator. After 24 hours, media was removed and replaced with fresh growth media containing various drug concentrations. Each drug concentration was added in triplicate. Non-drug treated controls contained growth media only. Cells were returned to the incubator. Ninety-six hours after addition of drug, cells were fixed with 4% paraformaldehyde for 20 minutes and stained with Hoechst at 1 ug/mL. The plates were imaged on a Cytation 5 auto imager (BioTek) and cells were counted using CellProfiler (http://cellprofiler.org). The percent cell growth delay was calculated and data plotted using GraphPad Prism

The nature of series [2]: Glutathione cleavage study. The format is in vitro ADME. The following applies: Tris buffer with 10 mM glutathione, Glutathione Challenge (10 mM), 100 μM conjugate, Tris pH 7.5, 37° C. As for the experimental part:
A 20 mM stock of conjugate was prepared in 100% DMSO. The stocks were subsequently diluted in 100 mM Tris, pH 7.5, to yield an intermediate dilution of 500 μM followed by an additional dilution of 1:5 in 100 mM Tris, pH 7.5 to give a final concentration of 100 μM of conjugate. 100 mM glutathione was prepared immediately prior to use in H2O and diluted 1:10 in challenge samples for a final glutathione challenge concentration of 10 mM. Samples were mixed by inversion and incubated at 37° C. for up to 24 hrs. […]
Samples were thawed and extracted as follows: 8 μL of 25% phosphoric acid followed by 117 μL of 100% acetonitrile/0.1% TFA were added to each sample, mixed and centrifuged at 13000×G for 10 minutes. The supernatant was pipetted into 0.2 mL HPLC vials and placed on a Perkin Elmer Flexar HPLC autosampler. The following table summarizes HPLC conditions:
Data was analyzed by calculating the percentage reduction of compound (area of retention time peak of […] conjugate/area of retention time peak of conjugate at time 0)×100.

Series [3] is described as follows: Plasma stability studies. The format is in vitro ADME. Conditions: rat plasma, 100 μM conjugate, 37° C. As for the experimental part: A 20 mM stock of conjugate was prepared in 100% DMSO. The stocks were subsequently diluted in 100 mM Tris, pH 7.5 to yield an intermediate dilution of 500 μM and then diluted 1:5 directly into rat plasma to yield a final concentration of 100 μM of conjugate. Samples were mixed by inversion and incubated at 37° C. for up to 24 h. 50 μL samples were aliquoted into siliconized microfuge tubes at time 0, 4, and 24 h and immediately frozen at −80° C.
Samples were thawed and extracted as follows: 8 μL of 25% phosphoric acid followed by 117 μL of 100% Acetonitrile/0.1% TFA was added to each sample, mixed and centrifuged at 13000×G for 10 minutes. The supernatant was pipetted into 0.2 mL HPLC vials and placed on a Perkin Elmer Flexar HPLC autosampler. The following table summarizes HPLC conditions:
Data was analyzed by calculating the percentage reduction of compound (area of retention time peak of incubated conjugate/area of retention time peak of conjugate at time 0)×100.

Like-named read-outs stand apart in the source and are kept apart here.

For the compound `CC[C@@]1(O)C(=O)OCc2c1cc1n(c2=O)Cc2c-1nc1cc(F)c(C)c3c1c2[C@@H](NC(=O)O[C@H](C)[C@@H](C)SSC[C@H](NC(=O)[C@H](Cc1c[nH]c2ccccc12)NC(=O)[C@H](CC(C)C)NC(=O)[C@H](CC(C)C)NC(=O)[C@H](CC(=O)O)NC(=O)[C@H](CC(C)C)NC(=O)[C@H](CC(C)C)NC(=O)[C@H](CC(C)C)NC(=O)[C@@H](NC(=O)[C@H](CC(=O)O)NC(=O)[C@@H](NC(=O)[C@@H]1CCCN1C(=O)[C@H](Cc1ccccc1)NC(=O)[C@H](CC(C)C)NC(=O)[C@H](CC(C)C)NC(=O)[C@H](CC(=O)O)NC(=O)[C@H](CC(C)C)NC(=O)[C@H](Cc1ccc(O)cc1)NC(=O)[C@H](C)NC(=O)[C@H](CCCNC(=N)N)NC(=O)[C@H](Cc1c[nH]c2ccccc12)NC(=O)[C@@H]1CCCN1C(=O)[C@H](CC(N)=O)NC(=O)[C@H](CCC(N)=O)NC(=O)[C@H](CC(=O)O)NC(=O)[C@H](CC(=O)O)NC(=O)[C@H](C)N)[C@@H](C)O)[C@@H](C)O)C(=O)NCC(=O)O)CC3` [Compound 12], the IC50 in series [1] (HCT-116 cells, 96 h after addition of drug, second table (Compounds 11-29), read-out: HCT-116 (IC50)) was found to be 2.6 nM.

`CC[C@@]1(O)C(=O)OCc2c1cc1n(c2=O)Cc2c-1nc1cc(F)c(C)c3c1c2[C@@H](NC(=O)O[C@@H]1CCCC[C@H]1SSC[C@H](NC(=O)[C@H](Cc1c[nH]c2ccccc12)NC(=O)[C@H](CC(C)C)NC(=O)[C@H](CC(C)C)NC(=O)[C@H](CC(=O)O)NC(=O)[C@H](CC(C)C)NC(=O)[C@H](CC(C)C)NC(=O)[C@H](CC(C)C)NC(=O)[C@@H](NC(=O)[C@H](CC(=O)O)NC(=O)[C@@H](NC(=O)[C@@H]1CCCN1C(=O)[C@H](Cc1ccccc1)NC(=O)[C@H](CC(C)C)NC(=O)[C@H](CC(C)C)NC(=O)[C@H](CC(=O)O)NC(=O)[C@H](CC(C)C)NC(=O)[C@H](Cc1ccc(O)cc1)NC(=O)[C@H](C)NC(=O)[C@H](CCCNC(=N)N)NC(=O)[C@H](Cc1c[nH]c2ccccc12)NC(=O)[C@@H]1CCCN1C(=O)[C@H](CC(N)=O)NC(=O)[C@H](CCC(N)=O)NC(=O)[C@H](CC(=O)O)NC(=O)[C@H](CC(=O)O)NC(=O)[C@H](C)N)[C@@H](C)O)[C@@H](C)O)C(=O)NCC(=O)O)CC3` [Compound 13] came in with an IC50 in series [1] (96 h) of 21 nM.

In turn, `CC[C@@]1(O)C(=O)OCc2c1cc1n(c2=O)Cc2c-1nc1cc(F)c(C)c3c1c2[C@@H](NC(=O)O[C@@H]1CCC[C@H]1SSC[C@H](NC(=O)[C@H](Cc1c[nH]c2ccccc12)NC(=O)[C@H](CC(C)C)NC(=O)[C@H](CC(C)C)NC(=O)[C@H](CC(=O)O)NC(=O)[C@H](CC(C)C)NC(=O)[C@H](CC(C)C)NC(=O)[C@H](CC(C)C)NC(=O)[C@@H](NC(=O)[C@H](CC(=O)O)NC(=O)[C@@H](NC(=O)[C@@H]1CCCN1C(=O)[C@H](Cc1ccccc1)NC(=O)[C@H](CC(C)C)NC(=O)[C@H](CC(C)C)NC(=O)[C@H](CC(=O)O)NC(=O)[C@H](CC(C)C)NC(=O)[C@H](Cc1ccc(O)cc1)NC(=O)[C@H](C)NC(=O)[C@H](CCCNC(=N)N)NC(=O)[C@H](Cc1c[nH]c2ccccc12)NC(=O)[C@@H]1CCCN1C(=O)[C@H](CC(N)=O)NC(=O)[C@H](CCC(N)=O)NC(=O)[C@H](CC(=O)O)NC(=O)[C@H](CC(=O)O)NC(=O)[C@H](C)N)[C@@H](C)O)[C@@H](C)O)C(=O)NCC(=O)O)CC3` [Compound 14] registered an IC50 in series [1] (96 h) of 4.7 nM. Further, in series [2], the fraction remaining at 4 h, 100 µM amounted to 14.9% and the fraction remaining at 24 h, 100 µM was 6.5%. Moreover, in series [3], the amount remaining at 4 h, 100 µM was found to be 106% and the fraction remaining at 24 h, 100 µM amounted to 106%.

For `CC[C@@]1(O)C(=O)OCc2c1cc1n(c2=O)Cc2c-1nc1cc(F)c(C)c3c1c2[C@@H](NC(=O)O[C@H]1CCC[C@@H]1SSC[C@H](NC(=O)[C@H](Cc1c[nH]c2ccccc12)NC(=O)[C@H](CC(C)C)NC(=O)[C@H](CC(C)C)NC(=O)[C@H](CC(=O)O)NC(=O)[C@H](CC(C)C)NC(=O)[C@H](CC(C)C)NC(=O)[C@H](CC(C)C)NC(=O)[C@@H](NC(=O)[C@H](CC(=O)O)NC(=O)[C@@H](NC(=O)[C@@H]1CCCN1C(=O)[C@H](Cc1ccccc1)NC(=O)[C@H](CC(C)C)NC(=O)[C@H](CC(C)C)NC(=O)[C@H](CC(=O)O)NC(=O)[C@H](CC(C)C)NC(=O)[C@H](Cc1ccc(O)cc1)NC(=O)[C@H](C)NC(=O)[C@H](CCCNC(=N)N)NC(=O)[C@H](Cc1c[nH]c2ccccc12)NC(=O)[C@@H]1CCCN1C(=O)[C@H](CC(N)=O)NC(=O)[C@H](CCC(N)=O)NC(=O)[C@H](CC(=O)O)NC(=O)[C@H](CC(=O)O)NC(=O)[C@H](C)N)[C@@H](C)O)[C@@H](C)O)C(=O)NCC(=O)O)CC3` [Compound 15], in series [1] (96 h), the midpoint of inhibition, the IC50, lay at 1.7 nM. Further, in series [2], the share remaining at 4 h, 100 µM is 19.4% and the share remaining at 24 h, 100 µM was determined as 8.3%. In addition, in series [3], the fraction remaining at 4 h, 100 µM was 105% and the share remaining at 24 h, 100 µM is 103%.

The compound `CC[C@@]1(O)C(=O)OCc2c1cc1n(c2=O)Cc2c-1nc1cc(F)c(C)c3c1c2[C@@H](NC(=O)O[C@@H]1COC[C@H]1SSC[C@H](NC(=O)[C@H](Cc1c[nH]c2ccccc12)NC(=O)[C@H](CC(C)C)NC(=O)[C@H](CC(C)C)NC(=O)[C@H](CC(=O)O)NC(=O)[C@H](CC(C)C)NC(=O)[C@H](CC(C)C)NC(=O)[C@H](CC(C)C)NC(=O)[C@@H](NC(=O)[C@H](CC(=O)O)NC(=O)[C@@H](NC(=O)[C@@H]1CCCN1C(=O)[C@H](Cc1ccccc1)NC(=O)[C@H](CC(C)C)NC(=O)[C@H](CC(C)C)NC(=O)[C@H](CC(=O)O)NC(=O)[C@H](CC(C)C)NC(=O)[C@H](Cc1ccc(O)cc1)NC(=O)[C@H](C)NC(=O)[C@H](CCCNC(=N)N)NC(=O)[C@H](Cc1c[nH]c2ccccc12)NC(=O)[C@@H]1CCCN1C(=O)[C@H](CC(N)=O)NC(=O)[C@H](CCC(N)=O)NC(=O)[C@H](CC(=O)O)NC(=O)[C@H](CC(=O)O)NC(=O)[C@H](C)N)[C@@H](C)O)[C@@H](C)O)C(=O)NCC(=O)O)CC3` [Compound 16] displayed an IC50 in series [1] (96 h) of 1.7 nM. In series [2], the amount remaining at 4 h, 100 µM turned out to be 3.4% and the amount remaining at 24 h, 100 µM is 2%. Besides, in series [3], the share remaining at 4 h, 100 µM came to 116% and the share remaining at 24 h, 100 µM amounted to 106%.

In the case of `CC[C@@]1(O)C(=O)OCc2c1cc1n(c2=O)Cc2c-1nc1cc(F)c(C)c3c1c2[C@@H](NC(=O)O[C@H]1Cc2ccccc2C[C@@H]1SSC[C@H](NC(=O)[C@H](Cc1c[nH]c2ccccc12)NC(=O)[C@H](CC(C)C)NC(=O)[C@H](CC(C)C)NC(=O)[C@H](CC(=O)O)NC(=O)[C@H](CC(C)C)NC(=O)[C@H](CC(C)C)NC(=O)[C@H](CC(C)C)NC(=O)[C@@H](NC(=O)[C@H](CC(=O)O)NC(=O)[C@@H](NC(=O)[C@@H]1CCCN1C(=O)[C@H](Cc1ccccc1)NC(=O)[C@H](CC(C)C)NC(=O)[C@H](CC(C)C)NC(=O)[C@H](CC(=O)O)NC(=O)[C@H](CC(C)C)NC(=O)[C@H](Cc1ccc(O)cc1)NC(=O)[C@H](C)NC(=O)[C@H](CCCNC(=N)N)NC(=O)[C@H](Cc1c[nH]c2ccccc12)NC(=O)[C@@H]1CCCN1C(=O)[C@H](CC(N)=O)NC(=O)[C@H](CCC(N)=O)NC(=O)[C@H](CC(=O)O)NC(=O)[C@H](CC(=O)O)NC(=O)[C@H](C)N)[C@@H](C)O)[C@@H](C)O)C(=O)NCC(=O)O)CC3` [Compound 19], the IC50 in series [1] (96 h) turned out to be 1.8 nM.

The term IC50 denotes the point on the concentration scale where inhibition reaches its midpoint.
